This is an account of results in article PMC6391317.

For data set [1], the target named is T1, thrombin (alpha-thrombin) (human, UniProt P00734;P00734 328-363;364-622). In words: capillary electrophoresis; simulated body plasma ionic buffer (SBP); exosite I; CE: 400 nM thrombin + 100 nM fluorescein-labeled aptamer in simulated body plasma ionic buffer (SBP; composition and pH not given in the material), 37 C for 2 m.
In data set [2] the target is T1, thrombin (alpha-thrombin). In words: capillary electrophoresis; simulated body plasma ionic buffer (SBP); exosite II; CE: 400 nM thrombin + 100 nM fluorescein-labeled aptamer in simulated body plasma ionic buffer (SBP; composition and pH not given in the material), 37 C for 2 m.

In general, Kd refers to a measure of binding affinity in units of concentration. GGTTGGTGTGGTTGG (structured_DNA) [HD1]: the Kd in data set [1] was 258 nM.

On to AGTCCGTGGTAGGGCAGGTTGGGGTGACT (structured_DNA) [HD22], for which, in data set [2], the Kd is 97.6 nM.
